Changes are numbered by the printed parent chain. Names and notes keep the numbering of the source.
B1: Variant 8: P450-BM3 variant of SEQ ID NO: 2: D118R; L219Y; K236H; S353T; N579T; T582A; E624D; D727S (protein)
chain: MLMKQASAIPQPKTYGPLKNLPHLEKEQLSQSLWRIADELGPIFRFDFPGVSSVFVSGHNLVAEVCDEERFDKSIEGALEKVRAFSGDGLATSWTHEPNWRKAHNILMPTFSQRAMKRYHEKMVDIATQLIQKWSRLNPNEEIDVADDMTRLTLDTIGLCGFNYRFNSFYRDQPHPFITSMVRALDEAMNKLQRANPDDPAYDENKRQFQEDIKVMNDYVDSIIAERRANGDQDEHDLLARMLNVEDPETGEKLDDENIRFQIITFLIAGHETTSGLLSFAIYCLLTHPEKLKKAQEEADRVLTDDTPEYKQIQQLKYIRMVLNETLRLYPTAPAFSLYAKEDTVLGGEYPITKGQPVTVLIPKLHRDQNAWGPDAEDFRPERFEDPSSIPHHAYKPFGNGQRACIGMQFALQEATMVLGLVLKHFELINHTGYELKIKEALTIKPDDFKITVKPRKTAAINVQRKEQAEQSAKKVRKKAENAHNTPLLVLYGSNMGTAEGTARDLADIAMSKGFAPQVATLDSHAGNLPREGAVLIVTASYNGHPPDNAKQFVDWLDQASADEVKGVRYSVFGCGDKTWAATYQKVPAFIDETLAAKGAENIADRGEADASDDFEGTYEEWRDHMWSDVAAYFNLDIENSEDNKSTLSLQFVDSAADMPLAKMHGAFSTNVVASKELQQPGSARSTRHLEIELPKEASYQEGDHLGVIPRNYEGIVNRVTARFGLSASQQIRLEAEEEKLAHLPLAKTVSVEELLQYVELQDPVTRTQLRAMAAKTVCPPHKVELEALLEKQAYKEQVLAKRLTMLELLEKYPACEMKFSEFIALLPSIRPRYYSISSSPRVDEKQASITVSVVSGEAWSGYGEYKGIASNYLAELQEGDTITCFISTPQSEFTLPKDPETPLIMVGPGTGVAPFRGFVQARKQLKEQGQSLGEAHLYFGCRSPHEDYLYQEELENAQSEGIITLHTAFSRMPNQPKTYVQHVMEQDGKKLIELLDQGAHFYICGDGSQMAPAVEATLMKSYADVHQVSEADARLWLQQLEEKGRYAKDVWAG
modifications: P450_BM3
notes: L219Y; K236H; S353T; N579T; T582A; E624D; D727S
B2: SEQ ID NO: 8: P450-BM3 parental backbone from the commercially available MCYP panel (MCYP-0343; Codexis) (protein)
chain: MTIKEMPQPKTFGELKNLPLLNTDKPVQALMKIADELGEIFKFEAPGRVTRYLSSQRLIKEACDESRFDKNLSQALKFARDFAGDGLFTSWTHEKNWKKAHNILLPSFSQQAMKGYHAMMVDIAVQLVQKWERLNADEYIEVPEDMTRLTLDTIGLCGFNYRFNSFYRDQPHPFIISMIRALDEVMNKLQRANPDDPAYDENKRQFQEDIKVMNDLVDKIIADRKASGEQSDDLLTQMLNGKDPETGEPLDDGNISYQIITFLIAGHETTSGLLSFALYFLVKNPHVLQKVAEEATRVLVDPVPSYKQVKQLKYVGMVLNEALRLWPTAPAFSLYAKEDTVLGGEYPLEKGDEVMVLIPQLHRDKTIWGDDVEEFRPERFENPSAIPQHAFKPFGNGQRACIGQQFALHEATLVLGMMLKHFDFEDHTNYELDIKETLTLKPEGFVVKAKSKKIPLGGIPSPSTEQSAKKVRKKAENAHNTPLLVLYGSNMGTAEGTARDLADIAMSKGFAPQVATLDSHAGNLPREGAVLIVTASYNGHPPDNAKQFVDWLDQASADEVKGVRYSVFGCGDKNWATTYQKVPAFIDETLAAKGAENIADRGEADASDDFEGTYEEWREHMWSDVAAYFNLDIENSEDNKSTLSLQFVDSAADMPLAKMHGAFSTNVVASKELQQPGSARSTRHLEIELPKEASYQEGDHLGVIPRNYEGIVNRVTARFGLDASQQIRLEAEEEKLAHLPLAKTVSVEELLQYVELQDPVTRTQLRAMAAKTVCPPHKVELEALLEKQAYKEQVLAKRLTMLELLEKYPACEMKFSEFIALLPSIRPRYYSISSSPRVDEKQASITVSVVSGEAWSGYGEYKGIASNYLAELQEGDTITCFISTPQSEFTLPKDPETPLIMVGPGTGVAPFRGFVQARKQLKEQGQSLGEAHLYFGCRSPHEDYLYQEELENAQSEGIITLHTAFSRMPNQPKTYVQHVMEQDGKKLIELLDQGAHFYICGDGSQMAPAVEATLMKSYADVHQVSEADARLWLQQLEEKGRYAKDVWAG
modifications: P450_BM3
B3: Variant 9: P450-BM3 variant of SEQ ID NO: 8: Y52F; D232H; E349K; E619D; D722S; R762H (protein)
chain: B2 chain with Y52F, D232H, E349K, E619D, D722S, R762H
modifications: P450_BM3
notes: D232H; E349K; E619D; D722S; R762H

Assays:
Type in all cases: biochemical
[1] = Validation of generalist properties: oxidation of imatinib by lyophilized P450-BM3 variant, UPLC-MS; conditions: [Imatinib] = 1 mM; for TON: TON = [substrate]*% conversion/[P450]
Protocol: (§1) For the production of lyophilized protein powders, LB agar plates supplemented with chloramphenicol (30 μg/mL) were streaked with E. coli containing a desired B. megaterium P450-BM3 variant in an IPTG-inducible vector. The plates were grown at 37° C. for 16 hrs before single clones were selected to inoculate a 15 mL Falcon™ tube (Fisher) containing TB media (3 mL) supplemented with chloramphenicol (30 μg/mL). The tube was shaken at 200 rpm, 30° C., and 85% humidity for 20-24 h to grow the cultures to saturation. Then, 2.5 mL of the overnight culture was used to inoculate sterile 1 L flasks containing TB medium (250 mL) supplemented with chloramphenicol (30 μg/mL), trace element solution (as described above), and 0.05 g/L ammonium iron (III) citrate. After being shaken at 250 rpm, 30° C., and 85% humidity to an OD600 of 0.8-1.2, P450 expression was induced by addition of IPTG (500 uM) and the heme precursor 5-aminolevulinic acid (5-ALA) to a final concentration of 500 uM. The cultures were grown for additional 20-24 hours and centrifuged in pre-weighed 250 mL centrifuge bottles for 20 minutes at 4000 rpm, 4° C. The supernatants were discarded, and the centrifuge bottles containing cell pellets were weighed. The pellets were resuspended in 50 mM potassium phosphate buffer with 2 mM DTT, pH 8.0 (5 mL of buffer per gram of cell pellet). The cells were lysed using a microfluidizer homogenizer, and the suspensions of cells and lysate were collected in sterile 50 mL centrifuge tubes. The samples were centrifuged for 30 minutes at 10,000 rpm, 4° C. The clarified lysate was collected into a plastic petri plate and frozen at −80° C. prior to lyophilization. The enzyme-containing lysates were lyophilized using standard methods known in the art.
(§2) Enzyme stocks (˜12 μM) were prepared by dissolving ˜20 mg of each enzyme in 100 mM potassium phosphate buffer, pH 8.0 (1 mL). The concentration of each enzyme stock solution was determined by the UV-visible absorption spectroscopy (after centrifugation to remove particulates) and diluted to standardize at 12 μM heme protein. Substrate solutions were prepared by dissolving each substrate in DMSO to reach a final concentration of 20 mM or 40 mM. Reaction mix (235 μL) followed by enzyme solution (50 μL) was added to the plates. The substrate stock solution was added to the enzyme solutions (15 μL at the two different concentrations). Each reaction contained 100 mM potassium phosphate, 1.0 mM NADP+, 25 mM glucose, 0.5 mg/mL glucose dehydrogenase, 5% DMSO and substrate at 1 or 2 mM. Loratadine, imatinib, and gefitinib (See, FIG. 1) were selected as substrates in addition to diclofenac to validate improved BM3 variants. The reactions were shaken at 450 rpm at 30° C. over 24 hours. All reactions were diluted with acetonitrile to a final concentration of 0.5 mM substrate. The plates were then centrifuged at 3,000 g for 1 hour at 20° C. The supernatant was diluted 1:1 with acetonitrile, filtered using a 0.4 micron filter, and analyzed by UPLC-MS.
(§3) For UPLC-MS analysis, the quenched and filtered reactions were transferred to 96-well HTP plates for analysis by UPLC on a Waters Acquity H-class system equipped with an autosampler. 1 uL of quenched sample was injected onto an Acquity UPLC HSS T3 column, 100 Å, (1.8 um; 2.1×100 mm). The column was eluted at a constant flow rate of 0.6 mL/min; conditions with solvent A (0.05% trifluoroacetic acid v/v, in H2O) and solvent B (0.05% trifluoroacetic acid v/v, in acetonitrile) used to elute the products of the reaction were: 0-2 min, A/B 95:5; 2-2.9 min, A/B 5:95; 2.9-3 min, A/B 95:5; 3-3.5 min, A/B 95:5. Column eluent was monitored by PDA (200-600 nm) prior to MS analysis in positive ESI mode (desolvation temperature 350° C., 3.25 kV spray voltage, cone voltage 25V). The column eluent was diverted to waste for the first 0.7 minutes of the run. For the remainder of the LC run, both MS (m/z 95-600 scan range) and MS/MS were collected. […]

[2] = Validation of generalist properties: oxidation of diclofenac by lyophilized P450-BM3 variant, UPLC-MS; conditions: [Diclofenac] = 1 mM; for TON: TON = [substrate]*% conversion/[P450]
Protocol: as §1, §2, §3

[3] = Validation of generalist properties: oxidation of gefitinib by lyophilized P450-BM3 variant, UPLC-MS; conditions: [Gefitinib] = 1 mM; for TON: TON = [substrate]*% conversion/[P450]
Protocol: as §1, §2, §3

[4] = Validation of generalist properties: oxidation of loratadine by lyophilized P450-BM3 variant, UPLC-MS; conditions: [Loratadine] = 1 mM; for TON: TON = [substrate]*% conversion/[P450]
Protocol: as §1, §2, §3

[5] = fold improvement over parent MCYP-1.2-A05
[6] = fold improvement over parent MCYP-P1.2-B02

Molecule | % Conv. [1] | TON [1] | FIOPC (A05) [1, 5] | % Conv. [2] | TON [2] | FIOPC (A05) [2, 5] | % Conv. [3] | TON [3] | FIOPC (A05) [3, 5] | % Conv. [4] | TON [4] | FIOPC (A05) [4, 5] | FIOPC (B02) [1, 6] | FIOPC (B02) [2, 6] | FIOPC (B02) [3, 6] | FIOPC (B02) [4, 6]
B1 | ++++ (15.01-20.00) | ‡‡‡ (5001-10000) | * (0.0-3.0) | + (0-5.00) | ‡‡ (1001-5000) | **** (10.01-15.00) | + (0-5.00) | ‡ (0-1000) | * (0.0-3.0) | ++ (5.01-10.00) | ‡‡ (1001-5000) | **** (10.01-15.00) |  |  |  | 
B2 | ++++ (15.01-20.00) | ‡‡‡‡ (10000-50000) |  | ++ (5.01-10.00) | ‡‡ (1001-5000) |  | + (0-5.00) | ‡ (0-1000) |  | ++ (5.01-10.00) | ‡‡ (1001-5000) |  |  |  |  | 
B3 | ++++ (15.01-20.00) | ‡‡‡‡ (10000-50000) |  | ++++ (15.01-20.00) | ‡‡‡ (5001-10000) |  | + (0-5.00) | ‡ (0-1000) |  | ++ (5.01-10.00) | ‡‡ (1001-5000) |  | * (0.0-3.0) | * (0.0-3.0) | * (0.0-3.0) | * (0.0-3.0)

Source: patent publication US10704030B2, “P450-BM3 variants with improved activity” (Codexis, Inc., priority 2015, dated 2020)
